Data published in US20260234242A1 (HAINAN SIMCERE ZAIMING PHARMACEUTICAL, published 2026).
Residue numbers refer to the chain shown, from its start. Like-named read-outs stand apart in the source and are kept apart here.

T1: human CDH6 on tumor cells (OVCAR3 cells, PA-1 cells) (human, UniProt P55285 54-790)
T1 sequence: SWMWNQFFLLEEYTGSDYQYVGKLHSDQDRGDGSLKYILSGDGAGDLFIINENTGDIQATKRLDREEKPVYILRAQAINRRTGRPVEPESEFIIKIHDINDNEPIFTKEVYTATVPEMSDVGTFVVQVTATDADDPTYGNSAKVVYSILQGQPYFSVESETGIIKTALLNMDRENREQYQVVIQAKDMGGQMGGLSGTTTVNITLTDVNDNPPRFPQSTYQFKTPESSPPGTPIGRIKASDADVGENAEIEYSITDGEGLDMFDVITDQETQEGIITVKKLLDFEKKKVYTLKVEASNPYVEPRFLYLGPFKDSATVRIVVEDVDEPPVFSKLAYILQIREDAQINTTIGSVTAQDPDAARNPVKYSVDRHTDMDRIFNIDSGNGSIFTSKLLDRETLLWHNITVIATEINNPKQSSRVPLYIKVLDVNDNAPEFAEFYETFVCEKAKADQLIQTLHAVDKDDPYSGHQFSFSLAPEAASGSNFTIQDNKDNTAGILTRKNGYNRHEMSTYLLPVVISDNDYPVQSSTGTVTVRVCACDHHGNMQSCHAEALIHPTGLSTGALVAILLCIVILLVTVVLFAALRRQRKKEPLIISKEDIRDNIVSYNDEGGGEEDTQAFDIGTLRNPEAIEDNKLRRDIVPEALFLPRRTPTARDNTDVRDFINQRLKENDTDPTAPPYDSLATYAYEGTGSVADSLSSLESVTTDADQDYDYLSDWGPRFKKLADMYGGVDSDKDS

T2: his-tagged human CDH6 extracellular region protein (hCDH6 ECD-his) (human, UniProt P55285 19-615)
T2 construct: also called Human CDH6-his; hCDH6-his; not shown: his tag
T2 sequence: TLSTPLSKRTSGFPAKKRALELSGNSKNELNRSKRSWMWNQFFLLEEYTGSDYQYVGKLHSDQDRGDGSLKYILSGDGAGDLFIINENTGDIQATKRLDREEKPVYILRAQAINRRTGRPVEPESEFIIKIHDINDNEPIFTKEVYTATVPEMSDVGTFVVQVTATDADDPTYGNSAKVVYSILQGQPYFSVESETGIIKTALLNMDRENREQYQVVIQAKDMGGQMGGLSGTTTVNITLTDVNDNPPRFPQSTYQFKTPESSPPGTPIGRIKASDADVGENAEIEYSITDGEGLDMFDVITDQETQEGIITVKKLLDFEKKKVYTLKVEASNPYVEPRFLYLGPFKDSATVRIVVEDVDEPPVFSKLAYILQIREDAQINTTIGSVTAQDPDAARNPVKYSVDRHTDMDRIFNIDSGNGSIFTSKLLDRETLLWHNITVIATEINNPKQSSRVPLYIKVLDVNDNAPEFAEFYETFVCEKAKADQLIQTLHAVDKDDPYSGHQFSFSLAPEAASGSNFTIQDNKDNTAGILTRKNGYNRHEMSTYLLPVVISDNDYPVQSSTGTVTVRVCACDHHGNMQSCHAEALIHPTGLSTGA

B1: hCDH6-6-H1L2 (antibody, V domains shown)
VH: EVQLVQSGAEVKKPGASVKVSCKASGYTFTDYYMAWVRQAPGQGLEWMGYIFPNSGGTDYSQKFKGRVTMTVDKSTSTVYMELSSLRSEDTAVYYCARELGADYGDYYAMDHWGQGTTVTVSS
VL: DIQMTQSPSSLSASVGDRVTITCRASENIDSYLAWYQQKPGKSPKLLVYSATLLADGVPSRFSGSGSGTDYTLTISSLQPEDFATYYCQHYYRTPPTFGQGTKLEIK
notes: Humanized
B2: hCDH6-6-H1L1 (antibody, V domains shown)
VH: B1 VH
VL: B1 VL with V48L
notes: Humanized
B3: hCDH6-1-H1L1 (antibody, V domains shown)
VH: EVQLVQSGAEVKKPGSSVKVSCKASGYTFSNYWMHWVRQAPGQGLEWMGDIDPSHSETHYTQKFKDRVTITVDKSTSTAYMELSSLRSEDTAVYYCARGDLGRFDYWGQGTTVTVSS
VL: DIVMTQSPDSLAVSLGERATINCRASESVSIHGTHLMHWYQQKPGQPPKLLIYAASNLESGVPDRFSGSGSETDFTLTISSLQAEDVAVYYCQQSFEDPWTFGGGTKVEIK
notes: Humanized
B4: hCDH6-1-H3L3 (antibody, V domains shown)
VH: B3 VH with S30T, I70L
VL: DIQMTQSPSSLSASVGDRVTITCRASESVSIHGTHLMHWYQQKPGKPPKLLIYAASNLESGVPSRFSGSGSETDFTFTISSLQPEDIATYYCQQSFEDPWTFGGGTKVEIK
notes: Humanized
B5: hCDH6-1-H1L3 (antibody, V domains shown)
VH: B3 VH
VL: B4 VL
notes: Humanized
B6: hCDH6-1-H1L2 (antibody, V domains shown)
VH: B3 VH
VL: B3 VL with P44S
notes: Humanized
B7: hCDH6-1-H4L3 (antibody, V domains shown)
VH: B3 VH with S30T, A40R
VL: B4 VL
notes: Humanized
B8: hCDH6-1-H4L2 (antibody, V domains shown)
VH: B3 VH with S30T, A40R
VL: B3 VL with P44S
notes: Humanized

Columns and labels:
[1] = biological target: T1, human CDH6 on tumor cells (OVCAR3 …); assay: FACS, OVCAR3 cells
Protocol: (§1) OVCAR3 cells with high expression of CDH6 and PA-1 cells with moderate expression of CDH6 were used to detect the binding activity of the antibodies to the cells. […] The cells were washed once with PBS, counted, resuspended to 2×10⁶ cells/mL in an FACS buffer (PBS+2% FBS), and then added to a 96-well plate at 50 μL/well. The chimeric antibodies were diluted with FACS buffer (PBS+2% FBS) and added to the 96-well plate at 50 μL/well, and the plate was incubated at 4° C. for 1 h. […] The dilution was added to the 96-well plate at 50 μL/well, and the plate was incubated at 4° C. for 1 h. After the plates were centrifuged and washed 2 times with PBS, the cells were resuspended in an FACS buffer. The mean fluorescence intensity (MFI) was measured using FACS Canton II (BD). Analysis was performed by the GraphPad Prism software, data were fitted, and EC50 values were calculated. The chimeric antibodies tested had strong binding to both OVCAR3 cells and PA-1 cells.
(§2) According to the above sequences, heavy chain (HC) and light chain (LC) plasmids were constructed (the nucleic acid sequences encoding the VH and VL of the antibodies were recombined into an expression vector carrying a signal peptide (SEQ ID NO: 132, […]) and a heavy chain constant region/light chain constant region sequence to obtain recombinant plasmids expressing VH—CH1-Fc/VL-CL). According to the expression and purification methods in Example 2, the hCDH6-6 humanized antibodies were obtained, and the binding activity of the humanized antibodies was detected by ELISA and FACS (see 2.2 and 2.3 for the method).

[2] = biological target: T2, his-tagged human CDH6 extracellular …; assay: SPR Biacore, antibody captured on Protein A
Protocol: (§3) The affinity of the antibody for the antigen was determined by a multi-cycle kinetic method using a BIAcore 8K instrument. In each cycle, the antibody to be tested was captured using a Protein A chip (purchased from GE, Cat. No. 29-1275-56), and then the antigen human CDH6 protein (hCDH6-his, conventionally synthesized) was injected. The association and dissociation processes of the antibody with the antigen protein were recorded, and finally, the chip was regenerated using Glycine pH 1.5, wherein the mobile phase was HBS-EP+ (10 mM HEPES, 150 mM NaCl, 3 mM EDTA, 0.05% surfactant P20, and 1 mM Ca), the flow rate was 30 μL/min, the association time was 240 s, the dissociation time was 300 s, the regeneration time was 30 s, the detection temperature was 25° C., and the antigen concentration was 31.25-1000 nM. The data were analyzed using Biacore 8K analysis software (version No. 2.0) based on the 1:1 binding model to fit the antibody-antigen binding kinetic parameters, including the association rate constant ka, the dissociation rate constant kd, and the equilibrium dissociation constant KD. The affinity values of the control antibody DS-H01L02 were undetectable. Antibodies not shown in the table had undetectable affinity values.
Four hCDH6-6 humanized antibodies with fewer back mutations were selected, and the affinity for human CDH6 protein was further confirmed using Biacore.

[3] = biological target: T2, his-tagged human CDH6 extracellular …; assay: ELISA, coated antigen
Protocol: Human CDH6 protein (hCDH6 ECD-his, conventionally synthesized), monkey CDH6 protein (cynoCDH6 ECD-his, conventionally synthesized; the cynoCDH6 ECD sequence was derived from Uniprot #A0A2K5TW62 (19-615)), and murine CDH6 protein (mCDH6 ECD-his, conventionally synthesized; the mCDH6 ECD sequence was derived from Uniprot #P97326 (19-615)) were diluted with PBS to a final concentration of 1 μg/mL, and added to a 96-well ELISA plate at 100 μL/well. The plate was incubated at 4° C. overnight. The next day, the plate was washed 3 times with a plate washing solution (PBS+0.01% (v/v) Tween 20), and a blocking buffer (PBS+0.01% (v/v) Tween 20+2% (w/w) BSA) was added for blocking at room temperature for 2 h. The blocking buffer was discarded, and the plate was washed 3 times. The chimeric antibodies were diluted with 1% BSA+PBS (purchased from Cytiva, Cat. No. SH30264.01) and added to the 96-well plate at 50 μL/well. After incubation at 37° C. for 2 h, the plate was washed 3 times with a plate washing solution. […] The plate was incubated at 37° C. for 1 h and then washed 5 times with a plate washing solution. A TMB substrate (purchased from Seracare, Cat. No. 5120-0077) was added at 50 μL/well and incubated at room temperature for 10 min, then a stop solution (1.0 N HCl) was added at 50 μL/well. OD450 nm values were read using a microplate reader (Biotek). Analysis was performed by the GraphPad Prism software, data were fitted, and EC50 values were calculated. The chimeric antibodies tested all had strong binding to the human CDH6 protein, the monkey CDH6 protein, and the murine CDH6 protein.
According to the above sequences, heavy chain (HC) and light chain (LC) plasmids were constructed (the nucleic acid sequences encoding the VH and VL of the antibodies were recombined into an expression vector carrying a signal peptide (SEQ ID NO: 132, […]) and a heavy chain constant region/light chain constant region sequence to obtain recombinant plasmids expressing VH—CH1-Fc/VL-CL).

[4] = biological target: T2, his-tagged human CDH6 extracellular …; assay: ELISA, coated antigen; remark: listed apart in the source
[5] = biological target: T2, his-tagged human CDH6 extracellular …; assay: SPR Biacore, antibody captured on Protein A; remark: listed apart in the source
Protocol: as §3
Four hCDH6-1 humanized antibodies with fewer back mutations were selected, and the affinity for human CDH6 protein was further confirmed using Biacore.

[6] = biological target: T1, human CDH6 on tumor cells (OVCAR3 …); assay: FACS, OVCAR3 cells; remark: listed apart in the source
Protocol: as §1
as §2, with “VH-CH1-Fc/VL-CL).” for “VH—CH1-Fc/VL-CL).”, “hCDH6-1” for “hCDH6-6”

Binder	EC50 [1] [nM]	Max MFI [1] [MFI]	Kd [2] [nM]	koff [2] [s⁻¹]	kon [2] [M⁻¹ s⁻¹]	EC50 [3] [nM]	Max OD450 [3] [OD450]	EC50 [4] [nM]	Max OD450 [4] [OD450]	Kd [5] [nM]	koff [5] [s⁻¹]	kon [5] [M⁻¹ s⁻¹]	EC50 [6] [nM]	Max MFI [6] [MFI]
B1	0.62	14300	138	0.00607	44100	0.028	2.07	–	–	–	–	–	–	–
B2	0.62	13700	192	0.00743	38600	0.037	2.08	–	–	–	–	–	–	–
B3	–	–	–	–	–	–	–	0.025	2.8	21.7	0.00456	210000	0.166	14400
B4	–	–	–	–	–	–	–	0.03	2.71	–	–	–	0.155	14600
B5	–	–	–	–	–	–	–	0.029	2.67	18.9	0.00824	435000	0.175	14500
B6	–	–	–	–	–	–	–	0.027	2.75	21.5	0.00422	196000	0.177	14500
B7	–	–	–	–	–	–	–	0.029	2.61	–	–	–	0.162	15100
B8	–	–	–	–	–	–	–	0.026	2.55	–	–	–	0.176	15200
